This note sets out measurements from the nanobody polyreactivity screen of Harvey et al. (2022).

This data set in a line: yeast display, Sf9 membrane polyspecificity reagent, FACS + sequencing; frameworks hold sequencing errors. The gist of the method: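 A nanobody's polyreactivity label depends on the gate it was sorted from. Yeast display cells were stained with 10% biotinylated, detergent-solubilized Sf9 membrane reagent for 1 hour at 4 °C, enriched on streptavidin microbeads and sorted by FACS. The low and high (top ~1%) gates were set on anti-HA fluorescence for expression and streptavidin fluorescence for reagent binding.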
With “QDQLVESGGCLVQAGGSLRLSCAASGSIFTKYAMGWYRQAPGKERELVAAIDVNGGSTRYADSVKGRFTISRDNAKNTVYLQMNSLKPEDTAVYYCAKDYTASYYPQGLYDYWGQGTQVTVSS”, the “polyreactivity (PSR sort gate)” value is listed as “low polyreactivity”.

Consider “QVQLVESGGGLVQAGGSLRLSCAASGFTFKKNAMGWYRQAPGKERELVAAIRSGTSTKYADSVKGRFTISRDNAKNTVYLQMNSLKPEDTAVYYCAAEEPEYLATWRNRRYDYWGQGTQVTVSS”, for which the “polyreactivity (PSR sort gate)” value was “low polyreactivity”.

With “QVQLVESGGGLVQAGGSLRLSCAASGFTFEYYAMGWYRQAPGKERELVAAIRSDSGTNYADSVKGRFTISRDNAKNTVYLQMNSLIPEDTAVYYCAAPTVVLIDYDYWGQGTQVTVSS”, the “polyreactivity (PSR sort gate)” value was “low polyreactivity”.

On to “QVQLVESGGGLVQAGGSLRLSCAASGSIFWSNAMGWYRQEPVKEREMVARISTSGGRTYYADSVKGRFTISRDNAKNTVYLQMNSLKPEDTAVYYCADDPYRWYYSTFYYWGQGTQVTVSS”, for which the “polyreactivity (PSR sort gate)” value was “high polyreactivity”.

Take “QVQLVESGGGLVQAGGSLRLSCAPSGSTFFLYVMGWYRQAPGKEREWVAAITSGGRTYYADSVKGRFTISRDNAKNTVYLQMNSLKREDTAVYYCAADVRRVRVGKYDYWGQGPQVTVSS”: the “polyreactivity (PSR sort gate)” value is listed as “high polyreactivity”.

Consider “QVQLQESGGGLVQAGGSLRPSCAASGSISDGVPMGWYRQAPGEQRELVATTVLGATTNYADSVKGRFTISRGNAKNTVYLLMNSLKPEETAVYYCAARLRYDKGFSYWGQGTQVTVSS”, for which the “polyreactivity (PSR sort gate)” value is “low polyreactivity”.

Turning to “QVQLVESGGGLVQAGGSLRLSCAASGNIFSDYAMGSYRQAPGKERELVAAISSGGNTNYADSVKGRFSISRDNAKKTVYLQMNSLKPEDTAVYYCAAFYNTTYTLLPAYSDVNYYYWGQGTQVTVSS”, the “polyreactivity (PSR sort gate)” value was “low polyreactivity”.

On to “QVQLVESGGGLVQAGGSLLLSCAASGRIFFTNAMGWYRQAPRKERELVAAISKSGARTYYADSVKGRFTISRDKAKNTVYLQMNSLKPEDTAVYYCATDYAFPQYDDWGQGTQVTVSS”, for which the “polyreactivity (PSR sort gate)” value is given as “high polyreactivity”.

On to “QVQLVESGGGLVQAGGSLRLSCAASGFIFKPYDMGWYRQARGKEREFVAAITYSGGRTYYADSVKGRFTISRDNAKNTVYLHMNSLKPEDTAVYYCAADQYWWYWYDYWGQGTQVTVSS”, for which the “polyreactivity (PSR sort gate)” value is “high polyreactivity”.

For “QVQLEESGGGLVQAGGSLRLSCAASGSTFGPNTMGRYRQAPGKERELVAAISRAGRTYYADSVKGRFTISRDNAKNTVYLQINSLKPEDTAVYYCNAGRSYHWRAGREYDYWGQGTQVTVSS”, the “polyreactivity (PSR sort gate)” value was “low polyreactivity”.

With “QVQLVESGGGLVQAGGSLRLSCAASGNTFLYYSMGWYRQAPGKEMELVASINLSDGSTYYADSVKGRFTISRDNAKNTVYFQMNSLKPEDTAVYYCAAVYGGYTIYDYWGQGTQVTVSS”, the “polyreactivity (PSR sort gate)” value is listed as “low polyreactivity”.

Take “QVQLVESGGGLVQAGGSLRLSCAASGSTFWFNDMGWYRQAPGKEREFVAAISSIGGSTYYADSVKGRFTISRDNAKNNVNLQMNSLKPEDTAVYYCAVEVVRVYRYDYWGQGTQVTVSS”: the “polyreactivity (PSR sort gate)” value was “low polyreactivity”.

As for “QVQLVESGGGLVQAGGSLRLSCAASGSIFLHNAMGWYRQAPGKERELVAVITSRGGSTYYADSVKGRLTISRDNAKNTVYLQMKSLKPEDTAVYYCAAPAYHKRTSRGDYWGQGTQVTVSS”, the “polyreactivity (PSR sort gate)” value is recorded as “low polyreactivity”.

For the sequence “QVQLVESGGGLFQAGGSLRLSCAASGRIFHGYDMGWYRQAPGKERELVAAITWRGGSTYADSVKGRFTISRDNGKNTVYLQMNSLKPEDTAVYYCAADTVYYGYFFYYWGQVTQVTVSS”, the “polyreactivity (PSR sort gate)” value is on record as “high polyreactivity”.

On to “QVQLVESGGGLVQAGGSLRLSCAASGFTFRRYVMGWYRQAPGKERELVAAISQSGGSTYYADSVKGRFTISRDNAKNTVYLQMYSLKPEDTAVYYCAAVTSRYVLSTFYYWGQGTQVTVSS”, for which the “polyreactivity (PSR sort gate)” value was “high polyreactivity”.

Turning to “QVQRVESGGGLVQAGGSLRLSCAASGNTFYGYTMGWYRQAPGKERELVAAISGRGGSTTYADSVKGRFTISRDNEKNTVYCQMNSLKPEDTAVYDCAANSVYIRTRFYYWGQGTQETVSS”, the “polyreactivity (PSR sort gate)” value is given as “high polyreactivity”.

Regarding “QVQLQESGGGLVQAGGSLRLGCAASGNISDAGYMGWYRQAPGKEREFVAAIAAGSNTNYADSVKGRFTISRDNAKNTVYLQMNSLKPEVTAVFYCAVACYARVQYEYWGQGTQVTVNS”, the “polyreactivity (PSR sort gate)” value was “low polyreactivity”.

Regarding “QVQLVESGGGLVQAGGSLRLSCAASGRIFGGNAMGWYRPAPGKERELVGGISRRGGSTYYADSVKGRFTISRDNAKNTVYLQMYSLKPEDTAVYYCNAYYRYSVFAEKYDYWGQGTQVTVSS”, the “polyreactivity (PSR sort gate)” value was “high polyreactivity”.

Consider “QVQLVESGAGLFQAGGSLRLSCAASGFTFWWYAMGWYRQAPGKQRELVASISSGGSTNYADSVKGRFTISRDNANNTVYLQMNSLKQVDTAVFYCARRMLYSERYSARWQYVYWGQGTQVNVSS”, for which the “polyreactivity (PSR sort gate)” value is “high polyreactivity”.

Regarding “QVQLVESGGGLVQAGGSLRLSCAASGFIFPYYAMGLYRQAPGKERELVAAITFSATRTYYADSVKGRFTISRDNAKNTVYLQMNSLKPEDTAVYYCKARGGVYGSYFEFNYWRQGTQVTVSS”, the “polyreactivity (PSR sort gate)” value is on record as “low polyreactivity”.

Turning to “QVQLLESGGGLVQAGGSLRLSCAASGRTFRYNAMGWYRQAPGKERELVAAITGSGGSTYYADSVKGRFTISRDNAKNTVYLQMNSLKPEDTAVYYCARAYSYRLYPYGSWGQGTQVTVSS”, the “polyreactivity (PSR sort gate)” value is on record as “high polyreactivity”.

Consider “QVQLEESAGRLVQARGSLRLSCAASGSTFGYNAMGWDSQAPGKARELVAALTRRGGRTYYADSVKGRFTISRDNAKNTVYLQMNSLKPEDTAVYYCAATSRGSGQRPGEAIIDYYYWGQGTQVTVSW”, for which the “polyreactivity (PSR sort gate)” value is given as “high polyreactivity”.

With “QDQHVESGGGLVQAGGSLRLSCAASGIIFYRYAMGWYRQAPGKERELVAAIRRSGGSTFYADSVKGRFTISRDNAKNTVYLQMNCLKPVDTAVYYCAAVYTGDPYGYWGQGTQVTVSS”, the “polyreactivity (PSR sort gate)” value is “high polyreactivity”.

With “QVQLVESGGGLVQAGGSLRLSCAASGFTFHYYTMGWYRQAPGKEREFVAAISKSGGRTYYADSVKGRFTISRDNAKNTVYLQMNSLKPEDTAVYYCATVGYWRNRHDYWGQGTQVTVSS”, the “polyreactivity (PSR sort gate)” value is on record as “high polyreactivity”.

Consider “QVQLEESVGGLVQAGGSLRLSCAASGSTFVYYGMGWYRQAPGKERELVAAITDIGDSTNYADSVKGRFTISRDNAKNTVYLQMNSLKPDDTAVYYCAASGRSVPYYGSPRNDYWGQGTQVTVSS”, for which the “polyreactivity (PSR sort gate)” value is reported as “low polyreactivity”.

As to “QVQLVESGGGLVQAGGSLRLSCAASGSIFGSYAMGWYRQAPGKERELVAVITSSGNTKYADSVKGRFTISRDNAKNTVYLQMNSLKPEDTAVYYCAARFITWGSQYSFRSMDYWGQGTQVTVSS”, the “polyreactivity (PSR sort gate)” value is given as “high polyreactivity”.

For the sequence “QGQLVESGGGLVQAGGSLRLSCAASGITFGDNAMGWYRQAPGKERELVAAISSGGSTDYADSVKGRFTISRDNAKNTVYLQMNSLKPEDTAVYYCAFDWVSVPEYDYWGQGTQVTVSS”, the “polyreactivity (PSR sort gate)” value was “low polyreactivity”.

For “QVQLVESGGSLVQSGGSLRLSCAASGSIFYRNAMGWYRQEPGKERELVASITSGGRTNYADSVKGRFTISRDNAKNTVYLQMNSLKPEDTAVYYCARGRASYTKSGPTPYTGYGYWGQGTQVTVSS”, the “polyreactivity (PSR sort gate)” value is given as “low polyreactivity”.

Regarding “QVQLVESGVGLVQAGGSLRLSCAASGITFNVNAMGWYRQAPGKERELVARITTSGGSTSYADSVKGRFTISRDNAKNTVYLQMNSLKPEDTAVYYCAADRARYYSEYDYWGQGTQVTVSS”, the “polyreactivity (PSR sort gate)” value is “low polyreactivity”.

In the case of “QVQLVESGGGLVQAGGSLRLSCAASGTFAGNAMGWYRQAPGKERELVAAINSGGSTNYADSVKGRFTISRDNAKNTVYLQMKSLKPEDTAVYYCAADSVWSPVDYDYWGQGTQVTVSS”, the “polyreactivity (PSR sort gate)” value is “low polyreactivity”.

As for “QVQLVESGGGLVQAGGSLRLSCAASGSTFAHYTMGWYRQAPGKERELVAAITRSGGSTYYADSVKGRFTISRDNAKNKVYLQMNSLKPEDTAVYYCAATRQWNILRYDYWGQCTQVTVSS”, the “polyreactivity (PSR sort gate)” value is reported as “low polyreactivity”.

For the sequence “QVQLVESGGGLVQAGGSLRLICAASGRIFFTYAMGWYIQAPGKERQLVASITGSGGSTYYADSVKGRFTISRDNAKNTVYLQMNSLKPEDTAVYYCAAALFRRQLYRKFYYWGQGTQVTVSS”, the “polyreactivity (PSR sort gate)” value is recorded as “low polyreactivity”.

On to “QVQLVESGGGLVQAGGSLRLSCAASGFTLRYYAMGWYRQAPGKERELVAAITSGGGSTYYADSVKGRFTISRDNAKNTVYLQMNSLKPEDTAVYYCNAQYGSLYYAVVLSNIYNYWGQGTQVTVSS”, for which the “polyreactivity (PSR sort gate)” value is on record as “high polyreactivity”.

Consider “QVQLVESGGGLVQAGGSLRLSCAASGSTSPTNVMGWYRQAPGKERELVAAISYSGGRTYYADSVKGRFTISRDNAKNTVYLQMNSLKPEDTAVYYCNAGKRGSTYYYWGQGTQVTVSS”, for which the “polyreactivity (PSR sort gate)” value is given as “high polyreactivity”.

On to “QVQLVESGGGLVQAGGSLRLSCAASGFIFRRYAMGWYRQAPGKERELVAAITSSGTSTYYADSVKGRFTISRDNAKNTVYLQMNSLKPEDTAVYYCNAAQYYERFNHWGQGTQVTVSS”, for which the “polyreactivity (PSR sort gate)” value is reported as “high polyreactivity”.

Turning to “QDQLVESGGGLVQAGGSLRLSCAASGFIFDQYAMGWYRQPPGKERELVAAITSGGDTNYADSVKGRFTISRDNAKNTVYLQMNSLKPEDTAVYYCNAAARGSSFDYWGQGTQVTVSS”, the “polyreactivity (PSR sort gate)” value is on record as “low polyreactivity”.

As to “QVQLVESGGGLVQAGGSLRLSCAASGSIFTPNVMGWYRQAPGKERELVAAISQSGGSTFYADSVKGRFTISRDNAKNTVYLQMNSLKPEDTAVYYCAADDGYTYYYWGQGTQVTVSS”, the “polyreactivity (PSR sort gate)” value is “low polyreactivity”.

On to “QVQLVETGGVLDQAGGSLRLSCAASGRIFWANAMGWYRQAPGKERELVAAISYSGVSTYYADSVKGRFTSSRDNAKNTVYLQMNSLKPEDTAVYYCAADRYRKYYYWGQGTQVTVSS”, for which the “polyreactivity (PSR sort gate)” value was “high polyreactivity”.

Take “QVQLVESGGGLVQAGGSLRLSCAASGLTFWAYAMGWYRQAPGKEREFVAAISWSGDSTYYADSVKGRFTISRDNAKNTVYLQMNSLKPEDTAVYYCAAEWYYVYIAPYDYWGQGTQVTVSS”: the “polyreactivity (PSR sort gate)” value was “low polyreactivity”.

With “QDQLVESWGGLVQAGGSLRLSCAASGFTFNKYAMGWYRQAPGKERELVAAISSSGGRTSYADSVKGRFTISRDNAKNTVYLQMNSLKPEDTAVYYCNKVSTADMGYWGHGTQVTVSS”, the “polyreactivity (PSR sort gate)” value is reported as “high polyreactivity”.

Take “QVQLVESGGGLVQAGGSLRLSCAASGSIFEGNGMGWYRQAPGKERELVASITRSGGSTYYADSVKGRFTISRDNAKNTVYLQMNSLKPEDTAVYYCAVSRDSYGGKGSVLYDYWGQGTQVTVSS”: the “polyreactivity (PSR sort gate)” value was “low polyreactivity”.
